Results on five substances are retold here after patent US20200040084A1.

Assay [1] concerns the target FcγRIIa (secondary ADCP assay, M2c macrophage effector cells) (UniProt P12318). Description: cell-based or functional assay.
The target in assay [2] is FcγRIIIa (secondary ADCC assays, NK effector cells) (UniProt P08637). Description: cell-based or functional assay.
A further assay has as its target FcγRIIa (UniProt P12318). The assay can be described thus: SPR, FcγRIIa binding.
Assay [3] concerns the target FcγRIIIa on Jurkat effector cells (UniProt P08637). The assay can be described thus: cell-based or functional assay.
Assay [4] concerns the target human FcγRIIa-H variant (Histidine at amino acid 131) on Jurkat effector cells (human) (UniProt P12318). The assay can be described thus: cell-based or functional assay.

Sequence of fucosylated anti-PD-L1 IgG1 antibody (avelumab) (HC): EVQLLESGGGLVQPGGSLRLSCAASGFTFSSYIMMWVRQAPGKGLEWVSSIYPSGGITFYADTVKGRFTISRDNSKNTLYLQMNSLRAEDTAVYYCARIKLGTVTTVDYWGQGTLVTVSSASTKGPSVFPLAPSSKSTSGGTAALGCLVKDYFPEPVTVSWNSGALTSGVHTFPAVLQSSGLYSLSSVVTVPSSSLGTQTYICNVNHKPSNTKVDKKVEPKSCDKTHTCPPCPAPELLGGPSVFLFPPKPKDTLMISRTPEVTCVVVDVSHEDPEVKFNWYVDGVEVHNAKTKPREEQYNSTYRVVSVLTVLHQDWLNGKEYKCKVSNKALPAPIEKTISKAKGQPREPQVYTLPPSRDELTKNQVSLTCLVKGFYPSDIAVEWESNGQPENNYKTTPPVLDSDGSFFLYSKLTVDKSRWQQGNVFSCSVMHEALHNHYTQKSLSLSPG
Sequence of fucosylated anti-PD-L1 IgG1 antibody (avelumab) (LC): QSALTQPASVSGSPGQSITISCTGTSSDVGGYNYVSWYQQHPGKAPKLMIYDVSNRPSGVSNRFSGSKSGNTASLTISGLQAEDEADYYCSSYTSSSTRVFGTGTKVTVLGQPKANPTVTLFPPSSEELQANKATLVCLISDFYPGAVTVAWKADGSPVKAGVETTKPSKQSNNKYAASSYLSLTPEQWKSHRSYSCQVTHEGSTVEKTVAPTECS
Sequence of afucosylated anti-PD-L1 IgG1 antibody (avelumab) (HC): as the sequence (HC) above
Sequence of afucosylated anti-PD-L1 IgG1 antibody (avelumab) (LC): as the sequence (LC) above
Sequence of FcγRIIa (P12318 34-217 limits assumed): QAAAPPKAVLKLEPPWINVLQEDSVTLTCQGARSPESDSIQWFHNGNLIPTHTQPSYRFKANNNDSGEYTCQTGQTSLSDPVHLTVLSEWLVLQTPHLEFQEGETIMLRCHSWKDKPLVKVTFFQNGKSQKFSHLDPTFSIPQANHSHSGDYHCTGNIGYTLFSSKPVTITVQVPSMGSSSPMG
Sequence of human FcγRIIa-H variant (Histidine at amino acid 131) on Jurkat effector cells (human) (P12318 34-317, change not shown): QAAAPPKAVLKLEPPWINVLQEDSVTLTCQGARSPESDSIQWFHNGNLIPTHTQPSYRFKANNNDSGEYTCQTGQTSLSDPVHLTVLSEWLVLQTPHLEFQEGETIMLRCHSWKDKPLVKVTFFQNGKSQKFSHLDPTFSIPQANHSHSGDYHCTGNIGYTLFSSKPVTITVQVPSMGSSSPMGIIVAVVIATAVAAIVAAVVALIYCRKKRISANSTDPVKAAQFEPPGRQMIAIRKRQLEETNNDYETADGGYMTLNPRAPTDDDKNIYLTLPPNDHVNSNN

Turning to “afucosylated anti-CD20 IgG1 antibody (obinutuzumab)”, the EC50 mean, ADCP in KILR Raji cells (M2c macrophages) in assay [1] turned out to be 370 pM.
As to “afucosylated anti-PD-L1 IgG1 antibody (avelumab)”, the EC50 mean, ADCC in KILR-A549 cells (NK cells) in assay [2] came out at 5.4 pM.
Consider “afucosylated version of Ipilimumab (antibody)”, for which the fold enhancement of binding by afucosylation in the assay with FcγRIIa came out at 10 fold.
As to “fucosylated anti-CD20 IgG1 antibody (obinutuzumab)”, the EC50 mean, ADCC in KILR Raji cells (NK cells) in assay [2] is 33 pM. In assay [3], this substance gave an EC50 mean, FcγRIIIa signaling in ADCC reporter assay (Raji targets) of 7100 pM. Also, in assay [1], the EC50 mean, ADCP in KILR Raji cells (M2c macrophages) was 820 pM. In assay [4], this substance registered an EC50 mean, FcγRIIa signaling in ADCP reporter assay (Raji targets) of 7100 pM.
“fucosylated anti-PD-L1 IgG1 antibody (avelumab)”: the EC50 mean, FcγRIIIa signaling in ADCC reporter assay (HEK-PD-L1 targets) in assay [3] was found to be 49 pM.
